In IntAct's records for PubMed 26280580:

B1: Ras-related protein Rap-1A (Homo sapiens), P62834 (parent)
chain: MREYKLVVLGSGGVGKSALTVQFVQGIFVEKYDPTIEDSYRKQVEVDCQQCMLEILDTAGTEQFTAMRDLYMKNGQGFALVYSITAQSTFNDLQDLREQILRVKDTEDVPMILVGNKCDLEDERVVGKEQGQNLARQWCNCAFLESSAKSKINVNEIFYDLVRQINRKTPVEKKKPKKKSCLLL

Variants of: B1
Conditions: with braf_human BRAF

effect of a mutation on the interaction | Variant
with no effect | MREYKLVVLGSGGVGKSALTVQFVQGIFVEKYDPTIEDSYRKQVEVDCQQCMLEILDTAGTEQFTAMRDLYMKNGQGFALVYSITAQSTFNDLQDLREQILRVKDTEDVPMILVGNKCDLEDERVVGKEQGQNLARQWCNCAFLESSAKSKINVNEIFYDLVTQINRKTPVEKKKPKKKSCLLL [R163T]
